Measured values as given in publication PMC3315804 (Molecular Biology of the Cell, 2012).

T1: Y14D-Cav-1-YFP (phosphomimicking mutant) (human, UniProt Q03135 1-178, Y14D)
T1 sequence: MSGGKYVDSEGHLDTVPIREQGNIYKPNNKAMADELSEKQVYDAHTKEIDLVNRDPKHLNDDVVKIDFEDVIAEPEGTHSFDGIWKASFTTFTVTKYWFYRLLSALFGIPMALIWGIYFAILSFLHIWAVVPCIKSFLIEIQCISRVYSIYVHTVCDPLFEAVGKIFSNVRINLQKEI


Columns and labels:
[1] = biological target: Y14D-Cav-1-YFP (phosphomimicking mutant) (human) (UniProt Q03135); experiment: co-IP
[2] = biological target: T1, Y14D-Cav-1-YFP (phosphomimicking mutant); experiment: co-IP

| fold binding against WT-eNOS with WT-Cav-1 [1] | fold binding against WT-eNOS with WT-Cav-1 [2] | Molecule |
| --- | --- | --- |
| 4.2 fold | – | eNOS-S1177D-CFP (phosphomimicking mutant) (from UniProt P29474-1 1-1203) (enzyme) |
| – | 4.2 fold | WT-eNOS-CFP, expressed in HEK cells (enzyme) MGNLKSVAQEPGPPCGLGLGLGLGLCGKQGPATPAPEPSRAPASLLPPAPEHSPPSSPLTQPPEGPKFPRVKNWEVGSITYDTLSAQAQQDGPCTPRRCLGSLVFPRKLQGRPSPGPPAPEQLLSQARDFINQYYSSIKRSGSQAHEQRLQEVEAEVAATGTYQLRESELVFGAKQAWRNAPRCVGRIQWGKLQVFDARDCRSAQEMFTYICNHIKYATNRGNLRSAITVFPQRCPGRGDFRIWNSQLVRYAGYRQQDGSVRGDPANVEITELCIQHGWTPGNGRFDVLPLLLQAPDDPPELFLLPPELVLEVPLEHPTLEWFAALGLRWYALPAVSNMLLEIGGLEFPAAPFSGWYMSTEIGTRNLCDPHRYNILEDVAVCMDLDTRTTSSLWKDKAAVEINVAVLHSYQLAKVTIVDHHAATASFMKHLENEQKARGGCPADWAWIVPPISGSLTPVFHQEMVNYFLSPAFRYQPDPWKGSAAKGTGITRKKTFKEVANAVKISASLMGTVMAKRVKATILYGSETGRAQSYAQQLGRLFRKAFDPRVLCMDEYDVVSLEHETLVLVVTSTFGNGDPPENGESFAAALMEMSGPYNSSPRPEQHKSYKIRFNSISCSDPLVSSWRRKRKESSNTDSAGALGTLRFCVFGLGSRAYPHFCAFARAVDTRLEELGGERLLQLGQGDELCGQEEAFRGWAQAAFQAACETFCVGEDAKAAARDIFSPKRSWKRQRYRLSAQAEGLQLLPGLIHVHRRKMFQATIRSVENLQSSKSTRATILVRLDTGGQEGLQYQPGDHIGVCPPNRPGLVEALLSRVEDPPAPTEPVAVEQLEKGSPGGPPPGWVRDPRLPPCTLRQALTFFLDITSPPSPQLLRLLSTLAEEPREQQELEALSQDPRRYEEWKWFRCPTLLEVLEQFPSVALPAPLLLTQLPLLQPRYYSVSSAPSTHPGEIHLTVAVLAYRTQDGLGPLHYGVCSTWLSQLKPGDPVPCFIRGAPSFRLPPDPSLPCILVGPGTGIAPFRGFWQERLHDIESKGLQPTPMTLVFGCRCSQLDHLYRDEVQNAQQRGVFGRVLTAFSREPDNPKTYVQDILRTELAAEVHRVLCLERGHMFVCGDVTMATNVLQTVQRILATEGDMELDEAGDVIGVLRDQQRYHEDIFGLTLRTQEVTSRIRTQSFSLQERQLRGAVPWAFDPPGSDTNSP |
